Residue numbers refer to the chain shown, from its start.
B1: Ch119 (antibody, human IgG1, kappa, V domains shown)
VH: QAYLQQSGAELVRPGASVKMSCKASGFAFTTYNMHWVKHTPGQGLEWIGAIYPGNGETSYNQKFKDRATLTVDKSSRTAYMQLSSLTSEDSAVYFCAREDDYGEGYFDVWGAGTTVTVSS
VL: DIVLTQSPASLAVSLGQRATISCRASESVDNSGLSFMHWYQQKPGQPPRLLLYRASNLGSGIPARFSGSGSGTDFTLTLNPVETDDVATYYCQQINTDPLTFGAGTKLELKR
notes: murine variable regions on human IgG1-YTE / kappa; also called chimeric antibody corresponding to mab119
B2: Ch3 (antibody, human IgG1, kappa, V domains shown)
VH: EVQLQQSGPVLVKPGASVKMSCKASGYTFTDDYMNWVKQSHGKSLEWIGIISPYNGGTSYNQKFKGKATLTVDKSSSTAYMELNSLTSEDSAVYYCAREDYDYDGYAMDHWGQGTSVTVSS
VL: QIVLSQSPAILSASPGEKVTMTCRASSSVSYMHWYQQKPGSSPKPWIYATSNLASGVPARFSGSGSGTSYSLTISRVEAEDAATYYCQQWSSNRTFGGGTKLEIKR
notes: murine variable regions on human IgG1-YTE / kappa; also called chimeric antibody corresponding to mab3
B3: hu119-20 (antibody, human IgG1, kappa)
heavy: EAQLVQSGAEVKKPGSSVKVSCKASGFTFSTYNMHWVRQAPGQGLEWIGAIYPGNGETSYNQKFKDRATLTVDKSTSTAYMELSSLRSEDTAVYYCAREDDYGEGYFDVWGQGTTVTVSSASTKGPSVFPLAPSSKSTSGGTAALGCLVKDYFPEPVTVSWNSGALTSGVHTFPAVLQSSGLYSLSSVVTVPSSSLGTQTYICNVNHKPSNTKVDKKVEPKSCDKTHTCPPCPAPELLGGPSVFLFPPKPKDTLYITREPEVTCVVVDVSHEDPEVKFNWYVDGVEVHNAKTKPREEQYNSTYRVVSVLTVLHQDWLNGKEYKCKVSNKALPAPIEKTISKAKGQPREPQVYTLPPSRDELTKNQVSLTCLVKGFYPSDIAVEWESNGQPENNYKTTPPVLDSDGSFFLYSKLTVDKSRWQQGNVFSCSVMHEALHNHYTQKSLSLSPGK
light: EIVLTQSPATLSLSPGERATLSCRASESVDNSGLSFMHWYQQKPGQPPRLLLYRASNLGSGIPARFSGSGSGTDFTLTISSLEPEDFAVYYCQQINTDPLTFGQGTKLEIKRTVAAPSVFIFPPSDEQLKSGTASVVCLLNNFYPREAKVQWKVDNALQSGNSQESVTEQDSKDSTYSLSSTLTLSKADYEKHKVYACEVTHQGLSSPVTKSFNRGEC
notes: IgG1-YTE, kappa
B4: hu119-24 (antibody, human IgG1, kappa)
heavy: B3 heavy with A2V, F27G
light: B3 light with E1D
notes: IgG1-YTE, kappa
B5: hu119-21 (antibody, human IgG1, kappa)
heavy: B3 heavy with A2V, F27G, S77R
light: B3 light
notes: IgG1-YTE, kappa
B6: hu119-14 (antibody, human IgG1, kappa, V domains shown)
VH: EVQLVQSGAEVKKPGSSVKVSCKASGGTFSTYNMHWVRQAPGQGLEWIGAIYPGNGETSYNQKFKDRATLTVDKSTSTAYMELSSLRSEDTAVYYCAREDDYGEGYFDVWGQGTTVTVSS
VL: EIVLTQSPATLSLSPGERATLSCRASESVDNSGLSFMHWYQQKPGQAPRLLIYRASNLGSGIPARFSGSGSGTDFTLTISSLEPEDFAVYYCQQINTDPLTFGQGTKLEIKR
notes: IgG1-YTE, kappa
B7: hu119-16 (antibody, human IgG1, kappa, V domains shown)
VH: B6 VH with S77R
VL: B6 VL
notes: IgG1-YTE, kappa
B8: hu119-26 (antibody, human IgG1, kappa)
heavy: B3 heavy with A2V, F27G, S77R
light: B3 light with E1D
notes: IgG1-YTE, kappa
B9: hu119-27 (antibody, human IgG1, kappa)
heavy: B3 heavy with S77R
light: B3 light with E1D
notes: IgG1-YTE, kappa
B10: hu119-19 (antibody, human IgG1, kappa)
heavy: B3 heavy with A2V, F27G
light: B3 light
notes: IgG1-YTE, kappa
B11: hu119-25 (antibody, human IgG1, kappa)
heavy: B3 heavy
light: B3 light with E1D
notes: IgG1-YTE, kappa
B12: hu119-17 (antibody, human IgG1, kappa, V domains shown)
VH: B6 VH with V2A, G27F, S77R
VL: B6 VL
notes: IgG1-YTE, kappa
B13: hu119-23 (antibody, human IgG1, kappa, V domains shown)
VH: B6 VH with G27F, R38K, Q39H
VL: B6 VL with E1D, A47P, I52L
notes: IgG1-YTE, kappa
B14: hu119-15 (antibody, human IgG1, kappa, V domains shown)
VH: B6 VH with V2A, G27F
VL: B6 VL
notes: IgG1-YTE, kappa
B15: hu119-22 (antibody, human IgG1, kappa)
heavy: B3 heavy with S77R
light: B3 light
notes: IgG1-YTE, kappa

target: T1, His-tagged human TSLP antigen (huTSLP-his) (human); assay: ELISA, coated huTSLP-his;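 note: binding of antibodies to plate-bound TSLP read as absorbance at 450 nm after TMB colour development, EC50 derived from binding curves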
T1 construct: Secreted from HEK293E and purified on nickel; whole entry named; also called Human TSLP-his
Protocol: The plate was incubated at 4° C. overnight. After the liquid was discarded, 5% skim milk (skim milk powder from Brightdairy) blocking solution diluted with PBS was added at 200 μL/well, and the plate was incubated in an incubator at 37° C. for 2 h for blocking. After the blocking, the blocking solution was discarded, and the plate was washed 3 times with a PBST buffer (PBS containing 0.1% (v/v) tween-20, pH 7.4). […] After the incubation, the plate was washed 3 times with PBST. […] After the plate was washed 6 times with PBST, a TMB chromogenic substrate (KPL, 52-00-03) was added at 50 μL/well, and the plate was incubated at room temperature for 10-15 min. Then, 1 M H₂SO₄ was added at 50 μL/well to stop the reaction. The absorbance at 450 nm was read with a NOVOStar microplate reader, and the EC₅₀ values for the binding of the TSLP antibodies to TSLP were calculated.

| EC50 [nM] | Binder |
| --- | --- |
| 0.851 | B1 |
| 0.493 | B2 |
| 0.341 | B3 |
| 0.345 | B4 |
| 0.399 | B5 |
| 0.345 | B6 |
| 0.366 | B7 |
| 0.378 | B8 |
| 0.335 | B9 |
| 0.353 | B10 |
| 0.357 | B11 |
| 0.351 | B12 |
| 0.34 | B13 |
| 0.35 | B14 |
| 0.351 | B15 |
